In paper PMC9482650, “Quantitative fragmentomics allow affinity mapping of interactomes” (Nature Communications, 2022):
One block for each binder: values may come before it.

What was measured:
Test in all cases: holdup assay
Parameters in all cases: key: below the threshold = too weak to quantify, mostly under pKd 3.1 to 4
[1] = target: Inadl_10, Q8NI35
[2] = target: T1, PDZD2_2, O15018
T1 sequence (O15018 329-429, limits assumed, looked up): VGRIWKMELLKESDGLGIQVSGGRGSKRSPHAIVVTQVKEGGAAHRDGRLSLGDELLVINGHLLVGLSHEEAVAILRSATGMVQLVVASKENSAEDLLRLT

[3] = target: T2, DLG3_2, Q92796
T2 sequence (Q92796 221-321, limits assumed, looked up): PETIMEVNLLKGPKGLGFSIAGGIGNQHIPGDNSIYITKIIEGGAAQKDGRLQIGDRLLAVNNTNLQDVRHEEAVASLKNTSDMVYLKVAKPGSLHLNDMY

[4] = target: FRMPD3, Q5JV73
FRMPD3, Q5JV73, sequence (Q5JV73 12-100): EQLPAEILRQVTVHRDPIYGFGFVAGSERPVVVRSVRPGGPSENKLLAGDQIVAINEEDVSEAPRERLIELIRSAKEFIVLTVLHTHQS

[5] = target: PDLIM1, O00151
PDLIM1, O00151, sequence (O00151 1-87): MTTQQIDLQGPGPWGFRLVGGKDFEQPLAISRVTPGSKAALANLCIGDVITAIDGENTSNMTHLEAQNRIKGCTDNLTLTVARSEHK

[6] = target: T3, APBA1_1, Q02410
T3 sequence (Q02410 651-752, limits assumed, looked up): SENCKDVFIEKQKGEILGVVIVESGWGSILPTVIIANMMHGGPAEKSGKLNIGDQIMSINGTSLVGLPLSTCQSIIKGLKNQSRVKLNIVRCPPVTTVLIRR

[7] = target: T4, NHERF3_4, Q5T2W1
T4 sequence (Q5T2W1 373-468, limits assumed, looked up): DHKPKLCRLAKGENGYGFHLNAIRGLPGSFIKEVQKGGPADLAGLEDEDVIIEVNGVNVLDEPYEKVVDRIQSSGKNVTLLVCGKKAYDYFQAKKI

[8] = target: MAGI2_6, Q86UL8
MAGI2_6, Q86UL8, sequence (Q86UL8 1141-1229): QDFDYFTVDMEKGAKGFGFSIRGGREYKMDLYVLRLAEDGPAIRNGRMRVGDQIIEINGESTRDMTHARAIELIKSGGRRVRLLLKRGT

[9] = target: PICK1, Q9NRD5
PICK1, Q9NRD5, sequence (Q9NRD5 17-115): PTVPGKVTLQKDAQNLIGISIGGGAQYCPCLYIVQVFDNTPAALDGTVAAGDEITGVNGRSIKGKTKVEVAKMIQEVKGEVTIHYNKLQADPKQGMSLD

[10] = target: PTPN3, P26045
PTPN3, P26045, sequence (P26045 505-587): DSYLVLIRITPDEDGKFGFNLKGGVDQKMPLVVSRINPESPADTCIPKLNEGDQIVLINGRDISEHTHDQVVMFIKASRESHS

[11] = target: NHERF2_2, Q15599
NHERF2_2, Q15599, sequence (Q15599 142-238): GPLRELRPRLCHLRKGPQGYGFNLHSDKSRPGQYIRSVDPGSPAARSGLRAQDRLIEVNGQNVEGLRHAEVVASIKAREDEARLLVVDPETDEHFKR

[12] = target: Inadl_1, Q8NI35
Inadl_1, Q8NI35, sequence (Q8NI35 113-229): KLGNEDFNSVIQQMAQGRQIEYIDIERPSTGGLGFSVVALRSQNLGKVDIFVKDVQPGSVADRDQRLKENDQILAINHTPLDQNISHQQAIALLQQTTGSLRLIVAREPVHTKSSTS

[13] = target: FRMPD2_1, Q68DX3
FRMPD2_1, Q68DX3, sequence (Q68DX3 770-861): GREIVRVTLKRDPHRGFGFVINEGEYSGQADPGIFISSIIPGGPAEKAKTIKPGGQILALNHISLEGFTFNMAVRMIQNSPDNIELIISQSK

[14] = target: TJP2_1, Q9UDY2
TJP2_1, Q9UDY2, sequence (Q9UDY2 24-128): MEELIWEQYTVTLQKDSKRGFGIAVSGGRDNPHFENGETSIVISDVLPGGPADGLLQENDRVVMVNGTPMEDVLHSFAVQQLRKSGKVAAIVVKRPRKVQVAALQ

[15] = target: T5, MPDZ_10, O75970
T5 sequence (O75970 1624-1722, limits assumed, looked up): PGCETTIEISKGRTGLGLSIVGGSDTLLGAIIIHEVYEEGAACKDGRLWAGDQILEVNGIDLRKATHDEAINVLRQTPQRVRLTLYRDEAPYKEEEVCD

[16] = target: T6, NHERF3_1, Q5T2W1
T6 sequence (Q5T2W1 4-100, limits assumed, looked up): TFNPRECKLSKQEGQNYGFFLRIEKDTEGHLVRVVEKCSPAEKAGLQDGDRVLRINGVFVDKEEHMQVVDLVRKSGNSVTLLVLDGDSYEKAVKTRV

[17] = target: NHERF4_1, Q86UT5-2
NHERF4_1, Q86UT5-2, sequence (Q86UT5 other isoform, or with tags, fused parts or gaps): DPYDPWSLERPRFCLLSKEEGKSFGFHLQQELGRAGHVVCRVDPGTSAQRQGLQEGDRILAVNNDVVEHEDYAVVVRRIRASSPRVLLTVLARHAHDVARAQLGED

[18] = target: T7, LIN7B, Q9HAP6
T7 sequence (Q9HAP6 88-185, limits assumed, looked up): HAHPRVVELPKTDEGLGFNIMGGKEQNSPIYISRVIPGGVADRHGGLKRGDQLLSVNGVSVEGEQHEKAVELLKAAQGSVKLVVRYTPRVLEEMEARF

[19] = target: T8, MPDZ_5, O75970
T8 sequence (O75970 695-796, limits assumed, looked up): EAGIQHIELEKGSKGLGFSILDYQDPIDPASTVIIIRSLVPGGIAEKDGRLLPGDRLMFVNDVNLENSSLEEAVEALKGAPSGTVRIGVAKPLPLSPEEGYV

[20] = target: T9, GRIP1_5, Q9Y3R0
T9 sequence (Q9Y3R0 568-668, limits assumed, looked up): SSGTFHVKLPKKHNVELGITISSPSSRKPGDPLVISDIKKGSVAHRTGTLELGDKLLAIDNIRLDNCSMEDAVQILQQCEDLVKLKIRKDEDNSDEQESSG

[21] = target: TJP1_3, Q07157
TJP1_3, Q07157, sequence (Q07157 416-512): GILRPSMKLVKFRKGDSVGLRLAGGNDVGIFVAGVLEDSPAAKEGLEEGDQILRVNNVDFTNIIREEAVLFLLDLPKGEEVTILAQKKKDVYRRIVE

[22] = target: T10, DLG3_1, Q92796
T10 sequence (Q92796 125-227, limits assumed, looked up): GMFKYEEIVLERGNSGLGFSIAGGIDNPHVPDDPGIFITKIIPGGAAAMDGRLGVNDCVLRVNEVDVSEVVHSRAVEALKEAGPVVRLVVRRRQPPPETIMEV

[23] = target: DLG1_2, Q12959
DLG1_2, Q12959, sequence (Q12959 314-412): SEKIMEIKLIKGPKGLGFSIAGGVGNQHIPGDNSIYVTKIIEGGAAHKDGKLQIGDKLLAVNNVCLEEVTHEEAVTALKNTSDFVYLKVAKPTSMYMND

[24] = target: NHERF4_4, Q86UT5
NHERF4_4, Q86UT5, sequence (Q86UT5 464-550): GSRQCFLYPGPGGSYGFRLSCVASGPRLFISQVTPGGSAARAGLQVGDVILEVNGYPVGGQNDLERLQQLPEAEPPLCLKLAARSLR

[25] = target: SNX27, Q96L92
[26] = target: T11, SIPA1L2, Q9P2F8
T11 sequence (Q9P2F8 945-1036, limits assumed, looked up): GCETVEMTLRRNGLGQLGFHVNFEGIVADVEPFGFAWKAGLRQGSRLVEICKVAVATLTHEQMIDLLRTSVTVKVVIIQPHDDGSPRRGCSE

[27] = target: LAP2, Q96RT1
LAP2, Q96RT1, sequence (Q96RT1 other isoform, or with tags, fused parts or gaps): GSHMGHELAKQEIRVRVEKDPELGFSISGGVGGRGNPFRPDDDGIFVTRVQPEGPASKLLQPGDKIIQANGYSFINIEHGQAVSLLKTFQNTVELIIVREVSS

[28] = plain residues with an end cap or a label only (N-terminal biotin on a linker: ttds)
[29] = plain residues with an end cap or a label only (N-terminal biotin on a linker: ahx)

Inadl_10, Q8NI35, sequence (Q8NI35 1673-1763): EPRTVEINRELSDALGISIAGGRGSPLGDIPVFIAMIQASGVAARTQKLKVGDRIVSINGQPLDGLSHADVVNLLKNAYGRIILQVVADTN

pKd [1, 28]: below the threshold
pKd [2, 28]: 3.75
pKd [3, 28]: 4.35
pKd [4, 28]: below the threshold
pKd [5, 28]: below the threshold
pKd [6, 28]: below the threshold
pKd [7, 28]: below the threshold
pKd [8, 28]: below the threshold
pKd [9, 28]: below the threshold
pKd [10, 28]: 4.75
pKd [11, 28]: below the threshold
pKd [12, 28]: below the threshold
pKd [13, 28]: below the threshold
pKd [14, 28]: below the threshold
pKd [15, 28]: below the threshold
pKd [16, 28]: 3.68
pKd [17, 28]: 3.36
pKd [18, 28]: 3.49
pKd [19, 28]: below the threshold
pKd [20, 28]: below the threshold
pKd [21, 28]: below the threshold
pKd [22, 28]: 3.3
pKd [23, 28]: 4.7
pKd [24, 28]: below the threshold
pKd [25, 28]: 4.23
pKd [26, 28]: below the threshold
pKd [27, 28]: 3.37
Binder: PSRDRKETSI [RALBP1, Q15311]

pKd [1, 29]: below the threshold
pKd [2, 29]: 3.75
pKd [3, 29]: 3.61
pKd [4, 29]: 4.7
pKd [5, 29]: below the threshold
pKd [6, 29]: below the threshold
pKd [7, 29]: 3.8
pKd [8, 29]: below the threshold
pKd [9, 29]: below the threshold
pKd [10, 29]: 3.71
pKd [11, 29]: 5.32
pKd [12, 29]: below the threshold
pKd [13, 29]: below the threshold
pKd [14, 29]: below the threshold
pKd [15, 29]: below the threshold
pKd [16, 29]: 4.27
pKd [17, 29]: 3.6
pKd [18, 29]: below the threshold
pKd [19, 29]: below the threshold
pKd [20, 29]: below the threshold
pKd [21, 29]: below the threshold
pKd [22, 29]: below the threshold
pKd [23, 29]: below the threshold
pKd [24, 29]: below the threshold
pKd [25, 29]: 4.51
pKd [26, 29]: below the threshold
pKd [27, 29]: below the threshold
Binder: KEYDDELTFF [USH1C, Q9Y6N9]
